Data as given in paper PMC1592478.

Biological target: human syndecan-1 with C-terminal HA tag (Syn-1-HA), stably expressed on GM00701 cells (human) (UniProt P18827)
Experiment: radioligand binding; ^125I-apoE-VLDL (2 μg/ml; in Figure 2C supplemented with 3 μg/ml apoE) on GM00701 or GM00701/Syn-1-HA cells, 4°C, 3 h, 20 mM Hepes pH 7.4, 150 mM NaCl, 2 mM CaCl2, 1% BSA; without or with unlabeled apoE-VLDL (100 μg/ml); specific binding = total minus non-competable

Sequence of UniProt P18827 (P18827 23-310): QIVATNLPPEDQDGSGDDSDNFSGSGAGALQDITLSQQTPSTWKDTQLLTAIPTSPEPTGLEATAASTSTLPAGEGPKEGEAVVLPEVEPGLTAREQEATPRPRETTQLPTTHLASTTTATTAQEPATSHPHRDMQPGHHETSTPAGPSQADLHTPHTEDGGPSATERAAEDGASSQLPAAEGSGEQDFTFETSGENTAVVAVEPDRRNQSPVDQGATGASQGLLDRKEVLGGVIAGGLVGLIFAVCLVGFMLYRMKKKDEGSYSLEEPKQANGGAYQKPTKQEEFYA

fold increase in specific binding over control GM00701 cells: 5 fold
Substance: apoE-VLDL (very low density lipoprotein particles with apoB100 and apoE, from rabbit plasma) (from UniProt P18287 19-311; P17165 1-144) (complex)
